{
  "source": "paper PMC7973117",
  "key": {"[1]": {"biological_target": "heteropentameric α1β mutated (α1βY240A) glycine receptor (rat) (UniProt P07727)"}, "[2]": {"biological_target": "heteropentameric α1β wild type glycine receptor (rat) (UniProt P07727)"}},
  "data": [
    {"substance": "Interleukin-1β (from UniProt P01584 117-269) (ligand)", "values": [
      {"measurement": "current decay time constant (τ) of glycine (50 μM)-activated currents after perfusion of IL-1β (10 ng/ml); whole-cell patch clamp, transfected HEK293T cells (Figure 4A)", "setting": "[1]", "value": 3370, "unit": "ms"},
      {"measurement": "current decay time constant (τ) of glycine (50 μM)-activated currents after perfusion of IL-1β (10 ng/ml); whole-cell patch clamp, transfected HEK293T cells (Figure 4A)", "setting": "[2]", "value": 35400, "unit": "ms"}
    ]}
  ]
}
